A short description of the series: yeast display, Sf9 membrane polyspecificity reagent, FACS + sequencing; frameworks hold sequencing errors. An outline of the steps:
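Polyreactivity labels are assigned by the sorting gate from which each nanobody was recovered. The gates were low and high (top ~1%), set on anti-HA fluorescence for expression and streptavidin fluorescence for reagent binding. Before sorting, galactose-induced (36–48 hours) yeast display cells were stained for 1 hour at 4 °C with 10% biotinylated, detergent-solubilized Sf9 membrane reagent.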
Take “QVQLVESGGGLVQAGGSLRLSCAASGSIFYENVMGWYRQAPGKERELVAGISRSGGRTYYADSVKGRFTISRDNAKNTVYFQMNSLKPEDTAVYYCAALTPRNRYRKFDYWGQGTQVTVSS”: the “polyreactivity (PSR sort gate)” value is “high polyreactivity”.
In the case of “QVQLVESGGGLVQAGGSLRLSCAASGFIFKRYAMGWYRQAPGKERELVAAITSGGSTHYADSVKGRFTISRDNAKNTVYLQMNSLKPEDTAVYYCAAVPRVNWSRYVYFWYDYWGQGTQVTVSS” it was “high polyreactivity”; in that of “QVQLVESCGGLVQAGGSLRLSCADSGRTIYVNAMGCYRQAPGKERELVARITSGGSTYYADSVKGRFTISRDNAKNTVYLQMNSLTPEDTAVLYCAKKYIGYQDWIHSTRRYDYWGQGTQVTVSS”, “low polyreactivity”; in that of “QVQLVESGGGLVQAGGSLRLSCAASGLTFRYYAMGWYRQAPGKERELVAAITRRGSTYYADSVKGRFTISRDNAKNTVYLQMNSLKPEDTAVYYCATVTGFHSSPLRDLDYWGQGTQVTVSS”, “high polyreactivity”.
For “QVQLVESGGGLVQAGGSLRLSCAASGSTFYYNAMGWYRQAPGKERELVAVINSGGSTYYADSVKGRFTISRDNAKNTVYLQMNSLKPEDTAVYYCARRRRESRQDGDYWGQGTQVTVSS”, the “polyreactivity (PSR sort gate)” value was “high polyreactivity”.
For “QVQLEESGGGLVQAVGSLRLTCAASGLIFKSNAMGWYRQAPGKERQLVAAITRTGGSTYYADSVKGRFTISRDNAKNTVYLQMNSLKPEDTAVYYCAVLYDRYGRAYYYWGQGTQVTVSS”, the “polyreactivity (PSR sort gate)” value is reported as “high polyreactivity”.
Take “QVQLVESRGGLVQAGGSLRLSCAASGRTFDRNAMGWYRQAPGKERQFVAAITSRVGSTYYADSVKGLFTISRDTAKNTVYLQMNSQKPEDTAVYDCNKRYFGEQTWVGGDSWGQGTLVTVSS”: the “polyreactivity (PSR sort gate)” value is given as “high polyreactivity”.
In the case of “QVQLVESGGGLVQAGGSLRLSCAASGSIFTRNAMGWYRQAPGKERELVAAITSGGRTYYADSVKGRFTISRDNAKNTVYLQMNSLKPEDTAVYYCNAYAWGWYDYWGQGTQVTVSS” it was “high polyreactivity”; in that of “QVQLVESGGGLVQAGGSLRLSCAASGSIVYRYAMGWYRPAPGKERELVAAISYSGGSTYYADSVKGRFTISRDNAKNTVYLQMNSLKPEDTAVYYCAKDYPPPISDYSRYYGYGYWGQGTQVTVSS”, “low polyreactivity”; in that of “QVQLVESGGGLVQAAGSLRLSCAASGGTFGWYAKGWYRLAHGKEREFLPAIRYSDGNTYYADSVKRRFTISRDNAKNSVYLQMNSLKPEDSAVYYCAADYVYAYIDGEVAEFYYWGPGTQVTVSS”, “high polyreactivity”.
As to “QVQLVESGGGLVQAGGSLRLSCAASGSIFHGNAMGWYRQAPGKERELVAAITARGGRTYYADSVKGRFTISRDNAKNTVYLQMNSLKPEDTAVYYCNAVHRYERDYWGQGTQVTVSS”, the “polyreactivity (PSR sort gate)” value was “high polyreactivity”.
Then “QVQLVESGGGLVQAGGSLRLSCAASGSIFQPNAMGWYRQAPGKERELVASIRGRGGDTYYADSVKGRFTISRDTAKNTVYLQMNSLKPEDTAVYYCAADYRWGQGTQVTVSS”, with “low polyreactivity”; and “QVQLVESGGGLVQAGGSLRLSCAASGRIFRLYAMGWYRQAPGKERELVATITSGGTYYADSVKGRFTISRDNAKNTVYLQMNSLKPEDTAVYYFAAVVYPGYVGSQEYDYWGQGTQVTVSS”, with “low polyreactivity”.
Then “QVQHVQSGGGLVQAGGSLPLSCDASASIFKYYTMGWYRQAPGKERELVATINFSGASTYYADSVKGRFTISRDNAKNTVYLQINSLKPEDTAVYYCAAVSSSTYRYYYWGQGTQVTVSS”, with “high polyreactivity”; and “QVQLVESGGGLVQAGGSLRLSCAASGRTFVGNAMGWYRQAPGKERELVAAITVNGVRTYYADSVKGRFTSSRDNAKNTVYLQMNSLKPEATAVYYCARDALHYAGSLHRYGYWGQGTQVTVSS”, with “low polyreactivity”; and “QVQLVDSGGGLVQAGGSLRLTCAASGIIIPVYAMGWYRQAPGKERELVAAISSGGSTYYADSVKGRFTISRDNAKNTVYLQINSLKPEDTAVYYCAARKVRYPYRWYDYWGQGTQVTVSS”, with “high polyreactivity”.
In the case of “QVQLVESGGGLVQGGGSLRLSCAASGINFSVYPMGWYRQAPGKERELVAAISVGGGRTYYAYSVKGRFTISRDYAKNTFYLEMNSLKAEDTAVYYCDARLGTRQYKMDYWGQGTQVTVSS” it was “high polyreactivity”; in that of “QVQLVESVGGLVQAGGSLRLSCAASGSTFTAYAMGWYRQAPGKERELVAAITSGGSKNYADSVKGRFTISRDNAKNTVYLQMNSLKPEDTAVYYCNADDYWLDSWSSFLWYDYWGQGTQVTVSS”, “low polyreactivity”; in that of “QVQLVESGGGLVQAGGSLRLSCAASGFTFGGYAMGWYRQAPGKERELVAAITRSGGRTYYADSVKGRFTISRDNAKNTVYLQMNSLKPEDTAVYYCNAYVIRALGYGGYDYWGQGTQVTVSS”, “high polyreactivity”.
As to “QVQLVESGGGLVQAGGSLRLSCAASGSIFQIYAMGWYRPAPGKERELVAAINSGGITKYADSVKGRFTISRDNAKNTVYLQMNSLKPEDTAVYYCAKRYGWPYGRFDYWGQGTQVTVSS”, the “polyreactivity (PSR sort gate)” value is given as “low polyreactivity”.
In the case of “QVQLVESGGVLVQAGGSLRLSCAASGRIFWGYAMGWYRQAPGKERELVARLTSGGDTYYADSVKGRFTISRDNAKNTVDLQMNSLKPEDTAVYYCAKSTAVKPYAYRESGFIYDYRGQGTQVTVSS” it was “low polyreactivity”.
In the case of “QVQLVESGGGLVQAGGSLRLSCAASGYTFYRYAMGWYRQAPGKERELVARISRSGGSTFYADSVKGRFTISRDNAKNTVYLQMNSLKPEDTAVYYCNAKQYSPYYLVIYHYWGQGTQVTVSS” it was “high polyreactivity”; in that of “QVQLVESGGGLVQAGGSLRLSCAASGSTFGWYTMGWYRQAPGKERELVAAITSRGTRTSYADSVKGRFTISRDNAKNTVYLQMNSLKPEDTAVYYCAARVFRGLGEYYWGQGTQVTVSS”, “high polyreactivity”.
Consider “NVQLVESGGGLVQAGGSLRLSCAASGGIFYRYAMGWYRQAPGKEWELVATISRRGGRTYYADSVKGRFTISRDNEKNTVYLQMNSLKPEDTAVYYCAADEWQSGHCLEDDYWGQGTQVTVSS”, for which the “polyreactivity (PSR sort gate)” value was “high polyreactivity”.
Then “QVQLVDSGGGLVQAGGSLRLSCAASGSTFYGYAMGWYRQAPGKERELVAAITSSGTRTYYADSVKGRITISRDNAKNSVYLQMNSLKPEDTAVYYCAADAPNFGLYRDKDYDYWGQGTQVTVSS”, with “high polyreactivity”.
Consider “QVQLVESGGGLVQAGGSLRLSCAASGFIIRSYAMGWYRQAPVKERELVAAISRGSRTYYADSVKGRFTISRDNAKNTVYLQMNSLKPEDTAVYYCNADPNVPVETFDYWGQGTQVTVSS”, for which the “polyreactivity (PSR sort gate)” value is given as “high polyreactivity”.
Then “QVQLVESGGGLVQAGGSLRLSCAASGRIFWGYDMGWYRQAPGKERELVAAINWSGGITNYADSVKGRFTISRDNAKNTVYLQMNSLKPEDTAVYYCAADTYWHRYYWGQGTQVTVSS”, with “high polyreactivity”; and “QVQLVESGGGLVQAGGSLRLSCAASVSIIPHNTMGWYRQAPGKEMELVAAISRSGGSTYYADSVKGRFTISRDNGKKTVYLQMNSLKPEDTAVYYCSSDSYDVGHQVVSEERLYDYWGQGTQVTVSS”, with “low polyreactivity”; and “QVQLVESGGGLVQAGGSLRLICAASGRIFKWYAMGWYRQAPGKERELVATITWSGGSTYYADSVKGRFTISRDNAKNTVYLQMNSLKPEDTAVYNCNADTWLALPGFDYWGQGTQVTVSS”, with “high polyreactivity”.
Then “QVQLVESGGGLVQAGGSLRLSCAASGRISSIYAMGCYRQAPGKERELVATISVRTTGTYYADSVKGRFTISRDNAKNTVYLQMNSLKPEDTAVYYCAAAKRRGYYVKYDYWGQGTQVTVSS”, with “high polyreactivity”; and “QVQLVESGGGLVQAGGSLRLSCAASGFTFYIYGMGWYRPAPGKERELVAAITWSGGRTYYADSVKGRFTISRDNAKNTVYLHMNSLKPEDTAVYYCAASYPGLSYHKYEYWGHGTQVTVSS”, with “high polyreactivity”.
Turning to “QVQLVESGGGLVQAGGSLRLSCAASGRIFRVNAMGWYRQAPGKERELVAAINFSGTSTYYADSVKGRFTISRDNAKNTVYLQMNSLKPEDTAVYYCNALTTSNSGRFYYWGQGTQVTVSS”, the “polyreactivity (PSR sort gate)” value is “low polyreactivity”.
Then “QVQLVESGRGLVEAGGSLRLSCAASGSTFWAYVMGWSRQAPGKERELVAAITSSGGSTYYADSVKGRFTISRDYAKNTVYLQMNILKPEDTAVYYCAADYFYPYYGAMDYWGQGTQVTVSS”, with “low polyreactivity”; and “QVQLVESGGGLVQAGGSLRLSCAASGFILTQYAMGWYREAPGKERELVASISSSGSTYYADSVKGRFTISRDNAKNTVYLQMNSLKPEDTGVYYCATPGPAVHGTRGEYDYWGQGTQVTVSS”, with “high polyreactivity”; and “QVQLVESGGGLVQAGGSLRLSCAASGFIFYGYDMGWYRQAPGKETELVASISVRGGDTYYADSVKGRFTISRDNAKNTVYLQMNSLKPEDTAVYDCNAEGYPGRFSYGVVYGDVGYDYWGQGTQVTVSS”, with “low polyreactivity”.
Then “QVQLVESGGGLVQAGGSLRLSCASSGITLAGNAMGWYRQAPGKERELVAAISASGGRTSYADSVKGRFSISRDNAKNTVYLQKNSLKPEDTAVYYCNTRRYPTRPSYDYWGQGTQVTVSS”, with “high polyreactivity”; and “QVQLVESGGRLLQAGGSLRLSCAASGRIIGLYAMGWYRPAPGKEWEFVAAINWDGGSTFYADSVKGRFTISRDNAKNSVYLQMNSLQPEDTAVYYCAADVYSYVSNCTYVSVFTYDYWGHGTQVTVSS”, with “low polyreactivity”.
Then “QVQLVESGGGLVQAGGSLRLSCAASGNTFYFNAMGWYRQAPGKERELVAAITSGGNTNYADSVKGRFTISRDHAKNTFNLQMNSLKPEDSAVYYCNVPRFSPIRNYDYWGQGTQVTVSS”, with “high polyreactivity”; and “QVQLVESGGGIVQAGGSLRLSCAASGIIFPVYAMGWYRQAPGKERELVAAISRSGGSTYYADSVKGRFTISRDNAKNNVYLQMNSLKPEDTAVYYCAARYVVGYSLSSYGYWGQGTQVTVSS”, with “high polyreactivity”.
On to “QVQLVESGGGLVQAGGSLRLSCSASGSIFSYYAMGWYRQAPGKERELVAAISRSGGSTYYADSVKGRFTISRDNAKNTVYLQMNSLKPEDTAVYYCAATRIHYPSYDYWGQGTQVTVSS”, for which the “polyreactivity (PSR sort gate)” value was “high polyreactivity”.

The values are drawn from the nanobody polyreactivity screen of Harvey et al. (2022).
